B1: anti-Aβ scFv-IgG (Fc fusion)
scFv: SEIVMTQTPLSLPVSLGDRASISCRSGQSLVHSNGNTYLHWYLQKPGQSPKLLIYTVSNRFSGVPDRFSGSGSGSDFTLTISRVEAEDLGVYFCSQNTFVPWTFGGGTKLEIKRTSSGGGGSGGGGSGGGGSEVQLQQSGPEVVKPGVSVKISCKGSGYTFTDYAMHWVKQSPGKSLEWIGVISTKYGKTNYNPSFQGQATMTVDKSSSTAYMELASLKASDSAIYYCARGDDGYSWGQGTSVTVSSASTGGGGGGGGGSGVPRDCGCKPCICTVPEVSSVFIFPPKPKDVLTITLTPKVTCVVVDISKDDPEVQFSWFVDDVEVHTAQTQPREEQFASTFRSVSELPIMHQDWLNGKEFKCRVNSAAFPAPIEKTISKTKGRPKAPQVYTIPPPKEQMAKDKVSLTCMITDFFPEDITVEWQWNGQPAENYKNTQPIMDTDGSYFVYSKLNVQKSNWEAGNTFTCSVLHEGLHNHHTEKSLSHSPGSGSGSGSHHHHHH
notes: Disulfide-linked homodimer; For SPR the protein was expressed in Expi293 cells and purified by IMAC; also called silent scFv-IgG; AAV-scFv-IgG (vector-expressed form)
B2: parental 13C3 anti-amyloid beta antibody (murine IgG) (antibody, V domains shown)
VH: EVQLQQSGPEVVKPGVSVKISCKGSGYTFTDYAMHWVKQSPGKSLEWIGVISTKYGKTNYNPSFQGQATMTVDKSSSTAYMELASLKASDSAIYYCARGDDGYSWGQGTSVTVSS
VL: EIVMTQTPLSLPVSLGDRASISCRSGQSLVHSNGNTYLHWYLQKPGQSPKLLIYTVSNRFSGVPDRFSGSGSGSDFTLTISRVEAEDLGVYFCSQNTFVPWTFGGGTKLEIK
notes: The SPR text says only 'parental IgG' or 'parental antibody'; The scFv-IgG derives from the murine 13C3 antibody (mouse IgG1); also called parental IgG; parental antibody

What was measured:
[1] = target: T1, Aβ1-42 fibrils (Aβ1-42 peptide, Bachem H-1368) (UniProt P05067 672-713); test: SPR (Biacore T200), scFv-IgG flowed over amine-coupled Aβ1-42 fibrils, 1:1 fit, apparent KD
T1 construct: domain: Aβ1-42; Fibrils were immobilized on the sensor chip by amine coupling, so this is a multimeric aggregate; also called fibrillar Aβ1-42; immobilized Aβ1-42 fibrils

[2] = target: T1, Aβ1-42 fibrils (Aβ1-42 peptide, Bachem …); test: SPR (Biacore T200): Aβ1-42 fibrils immobilised on the sensor chip by amine coupling, scFv-IgG injected at 5-50 nM, global fit to a 1:1 binding model
[3] = target: T1, Aβ1-42 fibrils (Aβ1-42 peptide, Bachem …); test: SPR (Biacore T200): Aβ1-42 fibrils immobilised on the sensor chip by amine coupling, antibody injected at 5-50 nM, global fit to a 1:1 binding model
[4] = target: T1, Aβ1-42 fibrils (Aβ1-42 peptide, Bachem …); test: SPR (Biacore T200), antibody flowed over amine-coupled Aβ1-42 fibrils, 1:1 fit, apparent KD

T1 sequence (P05067 672-713 limits assumed): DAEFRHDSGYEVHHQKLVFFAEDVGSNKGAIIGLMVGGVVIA

| Binder | Kd [1] [nM] | Kd [2] [nM] | Kd [3] [nM] | Kd [4] [nM] |
| --- | --- | --- | --- | --- |
| B1 | 0.52 | 0.525 |  |  |
| B2 |  |  | 0.132 | 0.13 |
